Measured values from publication PMC10873347.
One block for each substance: values may come before it.

Biological target: actin (pyrene-labeled filaments)
Experiment: pyrene-actin fluorescence quenching titration
Settings: sites S3

human cofilin-1 (from UniProt P23528) cofilin S3D,G4L, sequence (P23528 whole entry, looked up, stated change not applied): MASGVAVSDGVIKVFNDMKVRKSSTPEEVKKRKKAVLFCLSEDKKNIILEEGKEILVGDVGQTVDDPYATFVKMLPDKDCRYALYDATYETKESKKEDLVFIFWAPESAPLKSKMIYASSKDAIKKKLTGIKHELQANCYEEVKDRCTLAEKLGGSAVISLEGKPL
human cofilin-1 (from UniProt P23528) cofilin S3D,G4F, sequence (P23528 whole entry, looked up, stated change not applied): as above
human cofilin-1 (from UniProt P23528) cofilin S3D, sequence (P23528 whole entry, looked up, stated change not applied): as above

other: K0.5 (reference: cofilin WT): weaker; reference 0.61
Substance: human cofilin-1 (from UniProt P23528) cofilin S3D

other: K0.5 (reference: cofilin G4F): same; reference 1.0
Substance: human cofilin-1 (from UniProt P23528) cofilin S3D,G4F

other: K0.5 (reference: cofilin G4L): same; reference 0.59
Substance: human cofilin-1 (from UniProt P23528) cofilin S3D,G4L
